This note sets out measurements from US20240059773A1 (PALLEON PHARMACEUTICALS, published 2024).

The target of assay [1] is human PD-1 expressed on Jurkat T cells (human, UniProt Q15116 25-288). Put plainly: cell-based or functional assay.
For assay [2], the target named is T1, recombinant human PD-1 (hPD-1) (human, UniProt Q15116 25-167, limits assumed). The assay can be described thus: BLI (ForteBio Octet); ASC captured on AHC biosensor, hPD-1 titrated from 100 nM in a 2x series; 1:1 fit. Here is the method:
ASCs were captured on an AHC (Anti-human IgG-Capture) biosensor. hPD-1 analytes were titrated from 100 nM in a 2× series dilution. The signal was subtracted with buffer reference and aligned to baseline. KD, Kon and Koff values were generated using a 1:1 fitting model.

Assay [3] concerns the target T1, recombinant human PD-1 (hPD-1). Put plainly: competition ELISA: antibody titrated 3x and mixed with biotinylated hPD-L1-Fc (1 ug/mL), loaded on hPD-1-coated wells; residual hPD-L1-Fc detected with streptavidin-HRP, A450. The source says:
The plate was developed with TMB and Stop buffer and the absorbance at 450 nm was read using a SpectraMax plate reader. A450 absorbance curves and IC50S were generated using GraphPad Prism software.

T1 sequence (Q15116 25-167 limits assumed): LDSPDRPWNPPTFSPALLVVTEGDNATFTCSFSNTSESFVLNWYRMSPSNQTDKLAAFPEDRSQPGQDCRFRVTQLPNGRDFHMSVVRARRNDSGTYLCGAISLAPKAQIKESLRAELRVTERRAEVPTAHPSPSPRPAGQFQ
Chain of human PD-1 expressed on Jurkat T cells (Q15116 25-288): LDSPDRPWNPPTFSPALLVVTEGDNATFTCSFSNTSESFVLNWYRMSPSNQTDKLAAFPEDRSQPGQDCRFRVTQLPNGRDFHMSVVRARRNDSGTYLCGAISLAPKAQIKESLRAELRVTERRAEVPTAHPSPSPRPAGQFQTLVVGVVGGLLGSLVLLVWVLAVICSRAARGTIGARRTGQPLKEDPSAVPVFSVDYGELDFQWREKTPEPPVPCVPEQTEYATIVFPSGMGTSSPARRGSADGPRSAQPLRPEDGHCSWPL

B1: ASC #3 (Janus anti-PD-1 antibody sialidase conjugate) (antibody, human IgG1, kappa, N297A)
light: EIVLTQSPATLSLSPGERATLSCRASKGVSTSGYSYLHWYQQKPGQAPRLLIYLASYLESGVPARFSGSGSGTDFTLTISSLEPEDFAVYYCQHSRDLPLTFGGGTKVEIKRTVAAPSVFIFPPSDEQLKSGTASVVCLLNNFYPREAKVQWKVDNALQSGNSQESVTEQDSKDSTYSLSSTLTLSKADYEKHKVYACEVTHQGLSSPVTKSFNRGEC
heavy: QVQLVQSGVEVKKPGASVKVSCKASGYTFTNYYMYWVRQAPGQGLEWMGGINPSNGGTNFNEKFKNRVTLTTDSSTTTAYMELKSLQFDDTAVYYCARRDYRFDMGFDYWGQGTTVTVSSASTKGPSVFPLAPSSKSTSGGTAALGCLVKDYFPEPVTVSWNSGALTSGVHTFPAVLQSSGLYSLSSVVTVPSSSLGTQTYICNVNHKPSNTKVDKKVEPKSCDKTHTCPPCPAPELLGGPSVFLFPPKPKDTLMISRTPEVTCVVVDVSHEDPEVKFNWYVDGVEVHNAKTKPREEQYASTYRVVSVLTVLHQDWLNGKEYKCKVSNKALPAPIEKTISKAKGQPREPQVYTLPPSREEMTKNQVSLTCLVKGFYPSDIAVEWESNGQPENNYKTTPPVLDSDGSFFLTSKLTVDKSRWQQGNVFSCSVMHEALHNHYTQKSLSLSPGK
chain: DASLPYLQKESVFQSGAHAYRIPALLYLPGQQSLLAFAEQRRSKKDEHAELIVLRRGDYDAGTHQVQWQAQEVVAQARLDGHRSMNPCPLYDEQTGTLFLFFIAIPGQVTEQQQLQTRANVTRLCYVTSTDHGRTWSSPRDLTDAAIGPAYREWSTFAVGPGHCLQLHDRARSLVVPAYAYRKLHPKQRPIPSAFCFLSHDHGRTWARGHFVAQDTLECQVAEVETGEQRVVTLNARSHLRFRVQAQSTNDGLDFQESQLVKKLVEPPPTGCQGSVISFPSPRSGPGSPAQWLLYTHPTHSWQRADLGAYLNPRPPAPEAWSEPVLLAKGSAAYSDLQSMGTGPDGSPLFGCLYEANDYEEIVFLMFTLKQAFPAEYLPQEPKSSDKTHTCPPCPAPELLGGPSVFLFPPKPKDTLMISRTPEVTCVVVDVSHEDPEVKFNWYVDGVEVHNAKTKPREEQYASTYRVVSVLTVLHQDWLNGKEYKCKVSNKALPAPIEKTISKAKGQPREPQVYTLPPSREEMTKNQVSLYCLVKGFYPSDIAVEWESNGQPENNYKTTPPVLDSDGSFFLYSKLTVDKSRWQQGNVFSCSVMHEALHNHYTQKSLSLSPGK
notes: Janus format: one antibody arm (one heavy and one light chain) and one sialidase-Fc fusion, heterodimerised by knob (T366Y) and hole (Y407T) mutations; also called ASC #3-1; ASC #3-2
B1: in assay [1], the “EC50 (nM), fold induction of NFAT-driven luciferase” value came to 7.23 nM. Besides, the Kd in assay [2] was 10.3 nM. Further, the “IC50 (read off the curve)” value in assay [3] is approximately 7 nM.
